The text below walks through data of ChEMBL document CHEMBL4828702, “Identification of Novel High-Affinity Substrates of OCT1 Using Machine Learning-Guided Virtual Screening and Experimental Validation” (J Med Chem, 2021).

Series [1] deals with OCT1. Nature of the series: Ratio of drug uptake in human OCT1 expressing HEK293 cells at 2.5 uM to drug uptake in empty vector transfected human HEK293 cells at 2.5 uM. Type of series: ADME, cell-based.
The target in series [2] is Solute carrier family 22 member 1 (Homo sapiens) (UniProt O15245). Nature of the series: Substrate activity at human OCT1 expressed in HEK293 cells assessed as increase in compound uptake by measuring intrinsic clearance incubated for 2 mins by LC-MS/MS analysis.
Substrate in series [3]: CC(CCc1ccc(O)cc1)NCC(O)c1ccc(O)cc1
Kind of series: (§1) Substrate activity at human OCT1 expressed in HEK293 cells assessed as increase in compound uptake by measuring Km incubated for 2 mins by LC-MS/MS analysis. Format: cell-based.

Substrate in series [4]: NC(N)=Nc1nc(CSCC/C(N)=N/S(N)(=O)=O)cs1
The series is described as §1. Type of series: cell-based.

Substrate in series [5]: Nc1ccncc1N
The series is described as §1. Type of series: cell-based.

Substrate in series [6]: C[N+]1(C)CCN(c2ccccc2)CC1
Described as §1. Type of series: cell-based.

Substrate in series [7]: C[N+]1(C)[C@@H]2C[C@H](OC(=O)[C@H](CO)c3ccccc3)C[C@H]1[C@@H]1O[C@@H]12
The description is as §1. Format: cell-based.

Substrate in series [8]: CC[N+](CC)(CC(=O)Nc1c(C)cccc1C)Cc1ccccc1
Described as §1. Format: cell-based.

Substrate in series [9]: CN[C@@H]1CCc2[nH]c3ccc(C(N)=O)cc3c2C1
The series is described as §1. Format: cell-based.

Substrate in series [10]: CC(NCCc1ccc(O)cc1)C(O)c1ccc(O)cc1
Described as §1. Type of series: cell-based.

Substrate in series [11]: CCN(CC)CCNC(=O)c1ccc(NS(C)(=O)=O)cc1
The series is described as §1. Format: cell-based.

Substrate in series [12]: N=C(N)NCc1cccc(I)c1
The description is as §1. Type of series: cell-based.

Substrate in series [13]: C[N+]1(CCC(C(N)=O)(c2ccccc2)c2ccccc2)CCCCC1
Described as §1. Format: cell-based.

Substrate in series [14]: NCC(O)c1cccc(O)c1
The series is described as §1. Format: cell-based.

Substrate in series [15]: CNC[C@H](O)c1cccc(O)c1
The series is described as §1. Format: cell-based.

Substrate in series [16]: CC(C)NC[C@H](O)COc1ccc(O)cc1
The description is as §1. Format: cell-based.

Substrate in series [17]: N=C(N)NC(=O)Cc1c(Cl)cccc1Cl
The series is described as §1. Type of series: cell-based.

Substrate in series [18]: CCN(CC)C(=O)C1(c2ccccc2)CC1CN
Described as §1. Format: cell-based.

Substrate in series [19]: CC(C)NCC(O)c1ccc(NS(C)(=O)=O)cc1
The description is as §1. Type of series: cell-based.

Substrate in series [20]: CC[N+](C)(C)c1cccc(O)c1
Described as §1. Type of series: cell-based.

Substrate in series [21]: CC[N+](CC)(CC)Cc1ccccc1
Described as §1. Format: cell-based.

Substrate in series [22]: CC(CCc1ccc(O)cc1)NCCc1ccc(O)c(O)c1
The description is as §1. Format: cell-based.

Substrate in series [23]: NCC(O)c1ccc(O)cc1
The series is described as §1. Type of series: cell-based.

Substrate in series [24]: CC(CCc1ccc(O)cc1)NCC(O)c1ccc(O)cc1
Kind of series: (§2) Substrate activity at human OCT1 expressed in HEK293 cells assessed as increase in compound uptake by measuring Vmax incubated for 2 mins by LC-MS/MS analysis. Type of series: cell-based.

Substrate in series [25]: NC(N)=Nc1nc(CSCC/C(N)=N/S(N)(=O)=O)cs1
The series is described as §2. Type of series: cell-based.

Substrate in series [26]: Nc1ccncc1N
Described as §2. Format: cell-based.

Substrate in series [27]: C[N+]1(C)CCN(c2ccccc2)CC1
Described as §2. Format: cell-based.

Substrate in series [28]: C[N+]1(C)[C@@H]2C[C@H](OC(=O)[C@H](CO)c3ccccc3)C[C@H]1[C@@H]1O[C@@H]12
The series is described as §2. Type of series: cell-based.

Substrate in series [29]: CC[N+](CC)(CC(=O)Nc1c(C)cccc1C)Cc1ccccc1
Described as §2. Format: cell-based.

Substrate in series [30]: CN[C@@H]1CCc2[nH]c3ccc(C(N)=O)cc3c2C1
The description is as §2. Format: cell-based.

Substrate in series [31]: CC(NCCc1ccc(O)cc1)C(O)c1ccc(O)cc1
Described as §2. Format: cell-based.

Substrate in series [32]: CCN(CC)CCNC(=O)c1ccc(NS(C)(=O)=O)cc1
Described as §2. Format: cell-based.

Substrate in series [33]: N=C(N)NCc1cccc(I)c1
Described as §2. Type of series: cell-based.

Substrate in series [34]: C[N+]1(CCC(C(N)=O)(c2ccccc2)c2ccccc2)CCCCC1
The series is described as §2. Type of series: cell-based.

Substrate in series [35]: NCC(O)c1cccc(O)c1
The series is described as §2. Format: cell-based.

Substrate in series [36]: CNC[C@H](O)c1cccc(O)c1
Described as §2. Type of series: cell-based.

Substrate in series [37]: CC(C)NC[C@H](O)COc1ccc(O)cc1
The series is described as §2. Type of series: cell-based.

Substrate in series [38]: N=C(N)NC(=O)Cc1c(Cl)cccc1Cl
The series is described as §2. Format: cell-based.

Substrate in series [39]: CCN(CC)C(=O)C1(c2ccccc2)CC1CN
Described as §2. Type of series: cell-based.

Substrate in series [40]: CC(C)NCC(O)c1ccc(NS(C)(=O)=O)cc1
The series is described as §2. Format: cell-based.

Substrate in series [41]: CC[N+](C)(C)c1cccc(O)c1
The series is described as §2. Type of series: cell-based.

Substrate in series [42]: CC[N+](CC)(CC)Cc1ccccc1
The series is described as §2. Type of series: cell-based.

Substrate in series [43]: CC(CCc1ccc(O)cc1)NCCc1ccc(O)c(O)c1
The description is as §2. Type of series: cell-based.

Substrate in series [44]: NCC(O)c1ccc(O)cc1
The series is described as §2. Format: cell-based.

Solute carrier family 22 member 1 (Homo sapiens), sequence (O15245 whole entry, looked up): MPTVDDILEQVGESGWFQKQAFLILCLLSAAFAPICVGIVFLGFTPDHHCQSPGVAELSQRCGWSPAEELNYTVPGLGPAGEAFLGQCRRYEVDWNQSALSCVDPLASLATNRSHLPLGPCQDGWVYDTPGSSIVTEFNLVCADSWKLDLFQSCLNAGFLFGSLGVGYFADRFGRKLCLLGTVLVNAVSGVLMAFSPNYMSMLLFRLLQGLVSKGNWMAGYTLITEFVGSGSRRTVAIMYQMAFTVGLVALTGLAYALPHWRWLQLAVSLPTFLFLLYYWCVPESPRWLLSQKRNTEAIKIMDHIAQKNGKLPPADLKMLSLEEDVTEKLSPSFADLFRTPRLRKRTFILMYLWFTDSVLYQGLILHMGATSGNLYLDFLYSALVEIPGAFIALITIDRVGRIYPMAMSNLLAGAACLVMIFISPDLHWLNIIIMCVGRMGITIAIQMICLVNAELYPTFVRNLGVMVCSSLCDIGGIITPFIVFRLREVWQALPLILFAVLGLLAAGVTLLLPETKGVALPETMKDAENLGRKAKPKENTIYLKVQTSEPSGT

For `N=C(N)NCc1cccc(I)c1` [IOBENGUANE], the uptake ratio at 2.5 µM in series [1] stood at 10.1. In addition, in [2], the clearance stood at 3160 mL/min/g.
The like results for `CC(NCCc1ccc(O)cc1)C(O)c1ccc(O)cc1` (stereo unspecified) [RITODRINE] were, in that order, 7.6 and 104 mL/min/g.
The matching figures for `N=C(N)NC(=O)Cc1c(Cl)cccc1Cl` [GUANFACINE]: 4.3 and 138 mL/min/g.
The matching figures for `C[N+]1(C)CCN(c2ccccc2)CC1` [DIMETHYLPHENYLPIPERAZINIUM]: 38.9 and 47.2 mL/min/g.
As for `NC(N)=Nc1nc(CSCC/C(N)=N/S(N)(=O)=O)cs1`, the clearance in series [2] was found to be 87.4 mL/min/g.
On to `NCC(O)c1cccc(O)c1` (stereo unspecified) [NORFENEFRINE], for which the uptake ratio at 2.5 µM in series [1] came out at 2.1. Moreover, the clearance in series [2] was 4.6 mL/min/g.
The like results for `CC(CCc1ccc(O)cc1)NCCc1ccc(O)c(O)c1` (stereo unspecified) [DOBUTAMINE] were, in that order, 14.7 and 5.2 mL/min/g.
The matching figures for `CC[N+](C)(C)c1cccc(O)c1` [EDROPHONIUM]: 42.6 and 99.5 mL/min/g.
The like results for `CC(C)NC[C@H](O)COc1ccc(O)cc1` [PRENALTEROL] were, in that order, 5.3 and 12.4 mL/min/g.
Turning to `CC[N+](CC)(CC)Cc1ccccc1`, the uptake ratio at 2.5 µM in series [1] is 67.5. Besides, the clearance in series [2] is 62.8 mL/min/g.
The matching figures for `C[N+]1(CCC(C(N)=O)(c2ccccc2)c2ccccc2)CCCCC1`: 30.9 and 114 mL/min/g.
For the molecule `NCC(O)c1ccc(O)cc1` (stereo unspecified), in series [2], the clearance is 9.1 mL/min/g.
For the molecule `CN[C@@H]1CCc2[nH]c3ccc(C(N)=O)cc3c2C1` [FROVATRIPTAN], the uptake ratio at 2.5 µM in series [1] came out at 33.1. The clearance in [2] was 50.3 mL/min/g.
For `CC(CCc1ccc(O)cc1)NCC(O)c1ccc(O)cc1` (stereo unspecified) [RACTOPAMINE], in series [1], the uptake ratio at 2.5 µM is 7.1. In addition, the clearance in [2] was 111 mL/min/g.
The matching figures for `CC[N+](CC)(CC(=O)Nc1c(C)cccc1C)Cc1ccccc1` [DENATONIUM]: 21.6 and 71.4 mL/min/g.
The matching figures for `Nc1ccncc1N` [AMIFAMPRIDINE]: 6.8 and 18.8 mL/min/g.
The matching figures for `CCN(CC)CCNC(=O)c1ccc(NS(C)(=O)=O)cc1` [SEMATILIDE]: 3.5 and 3.3 mL/min/g.
With `CNC[C@H](O)c1cccc(O)c1` [PHENYLEPHRINE], the uptake ratio at 2.5 µM in series [1] amounted to 10.6. Moreover, the clearance in [2] was found to be 17.3 mL/min/g.

B1: POU domain, class 2, transcription factor 1 (Homo sapiens), P14859 (protein)
chain: MNNPSETSKPSMESGDGNTGTQTNGLDFQKQPVPVGGAISTAQAQAFLGHLHQVQLAGTSLQAAAQSLNVQSKSNEESGDSQQPSQPSQQPSVQAAIPQTQLMLAGGQITGLTLTPAQQQLLLQQAQAQAQLLAAAVQQHSASQQHSAAGATISASAATPMTQIPLSQPIQIAQDLQQLQQLQQQNLNLQQFVLVHPTTNLQPAQFIISQTPQGQQGLLQAQNLLTQLPQQSQANLLQSQPSITLTSQPATPTRTIAATPIQTLPQSQSTPKRIDTPSLEEPSDLEELEQFAKTFKQRRIKLGFTQGDVGLAMGKLYGNDFSQTTISRFEALNLSFKNMCKLKPLLEKWLNDAENLSSDSSLSSPSALNSPGIEGLSRRRKKRTSIETNIRVALEKSFLENQKPTSEEITMIADQLNMEKEVIRVWFCNRRQKEKRINPPSSGGTSSSPIKAIFPSPTSLVATTPSLVTSSAATTLTVSPVLPLTSAAVTNLSVTGTSDTTSNNTATVISTAPPASSAVTSPSLSPSPSASASTSEASSASETSTTQTTSTPLSSPLGTSQVMVTASGLQTAAAAALQGAAQLPANASLAAMAAAAGLNPSLMAPSQFAAGGALLSLNPGTLSGALSPALMSNSTLATIQALASGGSLPITSLDATGNLVFANAGGAPNIVTAPLFLNPQNLSLLTSNPVSLVSAAAASAGNSAPVASLHATSTSAESIQNSLFTVASASGAASTTTTASKAQ
B1: the Km in series [3] worked out at 2.1 µM; in [4] it was 35.7 µM; in series [5], 508 µM; in [6], 62 µM; in [7], 23.4 µM; in series [8], 12.6 µM. The Km stood at 61.9 µM in series [9]; 1.67 µM in series [10]; 102 µM in series [11]; 15.9 µM in series [12]; 8.6 µM in series [13]; 994 µM in series [14]. The Km was found to be 221 µM in [15]; 13.3 µM in series [16]; 8.6 µM in [17]; 2.26 µM in series [18]; 196 µM in series [19]; 26.4 µM in series [20]. Also, the values for the Michaelis constant (Km) in series [21], in series [22] and in series [23] were 38.6 µM, 28.4 µM and 389 µM, respectively. Further, the Vmax in series [24] was determined as 234 pmol/mg/min; in [25], 3120 pmol/mg/min; in series [26], 9570 pmol/mg/min; in series [27] it was 2930 pmol/mg/min; in series [28], 1210 pmol/mg/min; in series [29], 902 pmol/mg/min. The Vmax was 3110 pmol/mg/min in [30]; 173 pmol/mg/min in series [31]; 338 pmol/mg/min in series [32]; 5030 pmol/mg/min in series [33]; 971 pmol/mg/min in series [34]; 4550 pmol/mg/min in series [35]. The Vmax in [36] amounted to 3820 pmol/mg/min; in series [37], 165 pmol/mg/min; in series [38], 1180 pmol/mg/min; in series [39] it was 340 pmol/mg/min; in series [40] it was 2760 pmol/mg/min; in series [41], 2630 pmol/mg/min. The Vmax in [42] was 2420 pmol/mg/min; in series [43] it was 147 pmol/mg/min; in [44], 3540 pmol/mg/min.

For orientation: Km means the substrate concentration at which the rate is half of its maximum. As usually defined, the Vmax is the top rate of the reaction or transport when substrate is in excess.
